This assay deals with HTLV-1 Tax peptide on HLA-A*24:02 (human). Kind of assay: multimer staining.

B1: TCR7-2 (TCR, V domains shown)
Valpha: KQEVTQIPAALSVPEGENLVLNCSFTDSAIYNLQWFRQDPGKGLTSLLLIQSSQREQTSGRLNASLDKSSGRSTLYIAASQPGDSATYLCAVSRGNARLMFGDGTQLVVKP
Vbeta: DTGVSQDPRHKITKRGQNVTFRCDPISEHNRLYWYRQTLGQGPEFLTYFQNEAQLEKSRLLSDRFSAERPKGSFSTLEIQRTEQGDSAMYLCASAEDRGEKLFFGSGTQLSVL
Turning to B1, the binding result is “recognises”.

B2: TCR7-3 (TCR, V domains shown)
Valpha: KQEVTQIPAALSVPEGENLVLNCSFTDSAIYNLQWFRQDPGKGLTSLLLIQSSQREQTSGRLNASLDKSSGRSTLYIAASQPGDSATYLCAVSRGNNRLAFGKGNQVVVIP
Vbeta: DTGVSQDPRHKITKRGQNVTFRCDPISEHNRLYWYRQTLGQGPEFLTYFQNEAQLEKSRLLSDRFSAERPKGSFSTLEIQRTEQGDSAMYLCASSPDRADTQYFGPGTRLTVL
For the molecule B2, the binding result is given as “recognises”.

The values are drawn from US20200360435A1 (published 2020).
